The values below come from US20220144960A1 (NANJING LEGEND BIOTECH, published 2022).

Assay [1] has as its target T1, CD30 on CD30-expressing tumor cell lines (HH, MJ, H9) (UniProt P28908 19-595).
T1 sequence (looked up): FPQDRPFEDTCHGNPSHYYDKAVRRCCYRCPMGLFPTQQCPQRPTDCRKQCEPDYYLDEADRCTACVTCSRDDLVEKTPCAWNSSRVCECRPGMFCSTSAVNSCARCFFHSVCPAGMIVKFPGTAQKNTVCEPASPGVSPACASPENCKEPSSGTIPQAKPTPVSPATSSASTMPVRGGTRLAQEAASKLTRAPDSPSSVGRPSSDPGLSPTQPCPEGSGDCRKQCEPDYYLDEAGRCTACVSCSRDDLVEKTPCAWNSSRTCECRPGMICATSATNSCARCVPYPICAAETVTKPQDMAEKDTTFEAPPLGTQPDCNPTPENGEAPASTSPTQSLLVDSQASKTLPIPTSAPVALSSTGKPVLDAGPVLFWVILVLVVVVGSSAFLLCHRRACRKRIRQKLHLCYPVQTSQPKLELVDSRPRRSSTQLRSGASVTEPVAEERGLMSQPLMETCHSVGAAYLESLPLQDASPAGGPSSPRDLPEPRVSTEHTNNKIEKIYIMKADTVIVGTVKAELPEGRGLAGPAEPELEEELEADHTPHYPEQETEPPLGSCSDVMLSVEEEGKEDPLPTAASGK
The assay can be described thus: cell-based or functional assay.

Assay [2] has as its target T1, CD30 on CD30-expressing tumor cell …. The assay can be described thus: cell-based or functional assay. The source holds these as a separate data set.

B1: AS48463VH4dil-bbz CAR (other)
chain: EVQLLESGGGLVQPGGSLRLSCAASGFTFANSDMGWYRQAPGKGCELVSIISSHGGTTYYVDSVKGRFTISRDNSKNTLYLQMNSLRAEDTAVYYCVADPRSNCRGGYCCGYWGQGTLVTVSSGGGGSGGGGSGGGGSEVQLLESGGGLVQPGGSLRLSCAASGFTFANSDMGWYRQAPGKGCELVSIISSHGGTTYYVDSVKGRFTISRDNSKNTLYLQMNSLRAEDTAVYYCVADPRSNCRGGYCCGYWGQGTLVTVSSTTTPAPRPPTPAPTIASQPLSLRPEACRPAAGGAVHTRGLDFACDIYIWAPLAGTCGVLLLSLVITLYCKRGRKKLLYIFKQPFMRPVQTTQEEDGCSCRFPEEEEGGCELRVKFSRSADAPAYKQGQNQLYNELNLGRREEYDVLDKRRGRDPEMGGKPRRKNPQEGLYNELQKDKMAEAYSEIGMKGERRRGKGHDGLYQGLSTATKDTYDALHMQALPPR
Consider B1, for which, in assay [1], the “% H9 cell lysis E:T = 2:1 (LDH assay, CAR T cells)” value was 63% and the “% MJ cell lysis E:T = 1:1 (LDH assay, CAR T cells)” value was determined as 53%. Moreover, in assay [2], the “% H9 cell lysis E:T = 0.2:1 (FACS method, CAR T cells)” value turned out to be 30.8% and the “% MJ cell lysis E:T = 0.2:1 (FACS method, CAR T cells)” value is 26.3%.

B2: AS48542VH5dil-bbz CAR (other)
chain: EVQLVESGGGLVQPGGSLRLSCATSAFTFDGPDMAWYRQAPGKGCELVSIISADGRTYYADSVKGRFTISRDNSKNTVYLQMNSLRAEDTAVYYCALDPRKNCRGGYCCANWGQGTLVTVSSGGGGSGGGGSGGGGSEVQLVESGGGLVQPGGSLRLSCATSAFTFDGPDMAWYRQAPGKGCELVSIISADGRTYYADSVKGRFTISRDNSKNTVYLQMNSLRAEDTAVYYCALDPRKNCRGGYCCANWGQGTLVTVSSTTTPAPRPPTPAPTIASQPLSLRPEACRPAAGGAVHTRGLDFACDIYIWAPLAGTCGVLLLSLVITLYCKRGRKKLLYIFKQPFMRPVQTTQEEDGCSCRFPEEEEGGCELRVKFSRSADAPAYKQGQNQLYNELNLGRREEYDVLDKRRGRDPEMGGKPRRKNPQEGLYNELQKDKMAEAYSEIGMKGERRRGKGHDGLYQGLSTATKDTYDALHMQALPPR
As to B2, in assay [1], the “% H9 cell lysis E:T = 2:1 (LDH assay, CAR T cells)” value was 66% and the “% MJ cell lysis E:T = 1:1 (LDH assay, CAR T cells)” value worked out at 64%. Also, in assay [2], the “% H9 cell lysis E:T = 0.2:1 (FACS method, CAR T cells)” value is 40.4% and the “% MJ cell lysis E:T = 0.2:1 (FACS method, CAR T cells)” value is 63.4%.

B3: AS47863VH4dil-bbz CAR (other)
chain: EVQLVESGGGLVQPGGSLRLSCAASGSTFGDSDMGWYRQAPGKGCELVSIISSDGRTYYVDSVKGRFTISQDNSKNTLYLQMNSLRAEDTAVYYCAADLRQYCRDGRCCGYWGQGTLVTVSSGGGGSGGGGSGGGGSEVQLVESGGGLVQPGGSLRLSCAASGSTFGDSDMGWYRQAPGKGCELVSIISSDGRTYYVDSVKGRFTISQDNSKNTLYLQMNSLRAEDTAVYYCAADLRQYCRDGRCCGYWGQGTLVTVSSTTTPAPRPPTPAPTIASQPLSLRPEACRPAAGGAVHTRGLDFACDIYIWAPLAGTCGVLLLSLVITLYCKRGRKKLLYIFKQPFMRPVQTTQEEDGCSCRFPEEEEGGCELRVKFSRSADAPAYKQGQNQLYNELNLGRREEYDVLDKRRGRDPEMGGKPRRKNPQEGLYNELQKDKMAEAYSEIGMKGERRRGKGHDGLYQGLSTATKDTYDALHMQALPPR
Regarding B3, in assay [1], the “% H9 cell lysis E:T = 2:1 (LDH assay, CAR T cells)” value was found to be 64% and the “% MJ cell lysis E:T = 1:1 (LDH assay, CAR T cells)” value came to 50%. Besides, in assay [2], the “% H9 cell lysis E:T = 0.2:1 (FACS method, CAR T cells)” value was determined as 44.2% and the “% MJ cell lysis E:T = 0.2:1 (FACS method, CAR T cells)” value amounted to 30.4%.
